In patent US20260193366A1 (APOGEE THERAPEUTICS, published 2026):
Numbering of substitutions follows the chain as printed.

T1: cynomolgus monkey IL-4Rα (cynomolgus monkey, UniProt P24394 26-231 (human entry), limits assumed)
T1 construct: also called Cyno IL-4Rα; cyIL-4Rα
T1 chain: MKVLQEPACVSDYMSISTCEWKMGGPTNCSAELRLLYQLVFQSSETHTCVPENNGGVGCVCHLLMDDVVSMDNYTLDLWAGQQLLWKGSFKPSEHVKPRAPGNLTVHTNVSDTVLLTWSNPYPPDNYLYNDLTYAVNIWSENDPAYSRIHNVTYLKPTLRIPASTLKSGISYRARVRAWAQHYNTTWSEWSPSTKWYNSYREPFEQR

T2: human IL-4Rα (human, UniProt P24394 26-232)
T2 construct: also called Hu IL-4Rα; hIL-4Rα
T2 sequence: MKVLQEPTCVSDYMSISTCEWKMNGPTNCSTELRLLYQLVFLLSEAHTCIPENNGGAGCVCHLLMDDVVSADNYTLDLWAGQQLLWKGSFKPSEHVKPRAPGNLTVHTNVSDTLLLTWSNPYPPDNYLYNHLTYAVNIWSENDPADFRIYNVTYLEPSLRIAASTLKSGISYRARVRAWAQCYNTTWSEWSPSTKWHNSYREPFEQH

T3: hIL-4Rα on cells (human, UniProt P24394 26-825)
T3 sequence: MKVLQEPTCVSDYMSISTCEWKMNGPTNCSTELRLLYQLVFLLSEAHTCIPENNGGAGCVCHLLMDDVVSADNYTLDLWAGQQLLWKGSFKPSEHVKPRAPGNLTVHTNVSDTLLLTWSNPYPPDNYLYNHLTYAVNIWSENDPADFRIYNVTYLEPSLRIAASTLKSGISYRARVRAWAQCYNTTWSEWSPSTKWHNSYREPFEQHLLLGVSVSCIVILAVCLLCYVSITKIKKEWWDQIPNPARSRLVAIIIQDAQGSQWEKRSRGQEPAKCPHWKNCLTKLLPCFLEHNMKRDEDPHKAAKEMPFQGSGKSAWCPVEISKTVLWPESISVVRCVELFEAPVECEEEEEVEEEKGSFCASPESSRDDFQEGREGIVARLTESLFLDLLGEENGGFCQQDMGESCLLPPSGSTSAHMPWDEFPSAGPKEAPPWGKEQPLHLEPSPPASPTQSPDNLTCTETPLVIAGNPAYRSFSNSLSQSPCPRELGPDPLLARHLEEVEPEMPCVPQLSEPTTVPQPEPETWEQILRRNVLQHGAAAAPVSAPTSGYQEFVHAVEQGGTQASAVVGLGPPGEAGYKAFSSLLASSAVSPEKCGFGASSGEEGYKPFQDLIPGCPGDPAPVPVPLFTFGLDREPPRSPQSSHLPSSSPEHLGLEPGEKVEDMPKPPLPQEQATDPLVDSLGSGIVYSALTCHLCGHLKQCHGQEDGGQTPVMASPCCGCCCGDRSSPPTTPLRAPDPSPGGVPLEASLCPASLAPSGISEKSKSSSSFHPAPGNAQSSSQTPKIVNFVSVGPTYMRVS

B1: Construct 13 (mAb422) (antibody, IgG4, V domains shown)
VH: EVQLVESGGGLEQPGGSLRLSCAGSGFTFRDFAMTWVRQAPGKGLEWVSSVSGSGGNTYYADSVKGRFTISRDNSKNTLYLQMNSLRAEDTAVYYCAKDRLSVTVRPRYYGLDVWGQGTTVTVSS
VL: DIVMTQSPLSLPVTPGEPASISCRSSQSVLYSIGYNYVDWYLQKSGQSPQLLIYLGNKRASGVPDRFSGSGSGTDFTLKISRVEAEDVGFYYCMQSLTSPYTFGQGTKLEIK
notes: VH/VL only
B2: Construct 32 (mAb446) (antibody, IgG4, V domains shown)
VH: B1 VH with S54D
VL: B1 VL with V29L, I33N, V38L, G56S, N57S, K58N, S96A, L97F, T98Q, S99A
notes: VH/VL only
B3: Construct 30 (mAb439) (antibody, IgG4, V domains shown)
VH: B1 VH with F32Y, V51I, V103I, V105I
VL: DIVMTQSPLSLPVTPGEPASISCRSSQSLLYSNRNNYLDWYLQKSGQSPQLLIYSASIRASGVPDRFSGSGSGTDFTLKISRVEAEDVGFYYCMQAFQAPYTFGQGTKLEIK
notes: VH/VL only
B4: Construct 40 (mAb476) (antibody, IgG4, V domains shown)
VH: B1 VH with S54D, V103K, V105I
VL: B1 VL with S96A, L97Y, T98Q, T102V
notes: VH/VL only
B5: Construct 42 (mAb481) (antibody, IgG4, V domains shown)
VH: B1 VH with D31T, F32Y, V51I, S54D, G56S, L101V, V103I, V105I
VL: B1 VL with R24T, S25A, V29L, S96A, S99T
notes: VH/VL only
B6: Construct 15 (mAb423) (antibody, IgG4, V domains shown)
VH: B1 VH with V51I, T58I, V103K, V105I
VL: B1 VL with R24T, S25A, V29L
notes: VH/VL only
B7: Construct 45 (mAb494) (antibody, IgG4, V domains shown)
VH: B1 VH with V51I, G56D, N57G, L101V, V103I, V105I
VL: B1 VL with R24T, S25A, V29L, K58N, S61T, T98Q, S99T
notes: VH/VL only
B8: Construct 43 (mAb482) (antibody, IgG4, V domains shown)
VH: B1 VH with V51I, S54G, V103I, T104A
VL: B1 VL with R24T, V29L, N57S
notes: VH/VL only
B9: Construct 44 (mAb485) (antibody, IgG4, V domains shown)
VH: B1 VH with V51I, T58I, V103K, V105I
VL: B1 VL with S26T, V29L, Y35K, L55E, K58N
notes: VH/VL only
B10: Construct 46 (mAb501) (antibody, IgG4, V domains shown)
VH: B1 VH with F32S, V51I, G56D, N57G, V103I, T104Y, V105I
VL: B1 VL with R24T, V29L, S96A, T98Q, S99T
notes: VH/VL only
B11: Construct 41 (mAb478) (antibody, IgG4, V domains shown)
VH: B1 VH with V51I, S54G, L101V, V103I, V105I
VL: B1 VL with R24T, S25A, V29L, S96A, L97Y, T98N
notes: VH/VL only

Molecular target: T1, cynomolgus monkey IL-4Rα
Experiment: SPR, Carterra LSA;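 also: antibodies captured on an anti-human Fc sensor chip, antigen injected at several concentrations, association and dissociation rates fitted with a 1:1 Langmuir model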
Description: (§1) Binding affinity (KD) of antibodies to human and cynomolgus monkey IL-4Rα was determined through surface plasmon resonance (SPR) using a Carterra LSA. Briefly, an HC30M sensor chip that was previously functionalized with a polyclonal mixture of goat anti-human Fc antibody and used to capture purified antibodies at a level between 100-1000 RLU. […] Regeneration of the chip between different concentrations of antigen was performed with 200 mM phosphoric acid and antibody was captured again as previously described. Association and dissociation rate constants were subsequently determined through fitting to a 1:1 Langmuir binding model using the Kinetics Software from Carterra from which a KD value was derived.

| KD Relative to Dupilumab | Kd | Binder |
| --- | --- | --- |
| 0.02 | 12.6 nM | B1 |
| 1.58 | 993 nM | B2 |
| 0.2 | 128 nM | B3 |
| 0.22 | 136 nM | B4 |
| 0.25 | 158 nM | B5 |
| 0.04 | 24.6 nM | B6 |
| 0.31 | 192 nM | B7 |
| 0.24 | 150 nM | B8 |
| 2.03 | 1280 nM | B9 |
| 0.36 | 228 nM | B10 |
| 0.39 | 248 nM | B11 |

Molecular target: T2, human IL-4Rα
Experiment: SPR, Carterra LSA;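 also: antibodies captured on an anti-human Fc sensor chip, antigen injected at several concentrations, association and dissociation rates fitted with a 1:1 Langmuir model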
Description: as §1

| KD Relative to Dupilumab | Kd | Binder |
| --- | --- | --- |
| 0.65 | 0.00737 nM | B1 |
| 1.04 | 0.0118 nM | B2 |
| 0.98 | 0.011 nM | B3 |
| 1.11 | 0.0126 nM | B4 |
| 0.98 | 0.0111 nM | B5 |
| 1.21 | 0.0137 nM | B6 |
| 0.96 | 0.0109 nM | B7 |
| 0.84 | 0.00943 nM | B8 |
| 1.11 | 0.0125 nM | B9 |
| 0.97 | 0.011 nM | B10 |
| 0.86 | 0.00973 nM | B11 |

Molecular target: T3, hIL-4Rα on cells
Experiment: cell-based or functional assay

| Relative Inhibition of IL-4 induced TF-1 Proliferation IC50 | Relative Inhibition of IL-13 induced TF-1 Proliferation IC50 | Binder |
| --- | --- | --- |
| 0.675 relative to dupilumab | 0.794 relative to dupilumab | B1 |
| 1.74 relative to dupilumab | 2.01 relative to dupilumab | B2 |
| 0.387 relative to dupilumab | 0.917 relative to dupilumab | B3 |
| 0.968 relative to dupilumab | 1.01 relative to dupilumab | B4 |
| 1.19 relative to dupilumab | 1.19 relative to dupilumab | B5 |
| 0.281 relative to dupilumab | 0.71 relative to dupilumab | B6 |
| 1.68 relative to dupilumab | 1.79 relative to dupilumab | B7 |
| 1.13 relative to dupilumab | 0.941 relative to dupilumab | B8 |
| 1.15 relative to dupilumab | 1.29 relative to dupilumab | B9 |
| 1.29 relative to dupilumab | 1.28 relative to dupilumab | B10 |
| 0.82 relative to dupilumab | 1.15 relative to dupilumab | B11 |

Molecular target: T3, hIL-4Rα on cells
Experiment: FACS on HEK293 cells, competitor biotin-hIL-4;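 also: HEK293 cells stably co-expressing hIL-13Rα and hIL-4Rα, stained for 1 h at 4 °C, read-out as mean fluorescence intensity by flow cytometry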

| Relative Blockade of IL-4 Binding IC50 | Binder |
| --- | --- |
| 1.02 relative to dupilumab | B1 |
| 1.36 relative to dupilumab | B2 |
| 0.863 relative to dupilumab | B3 |
| 1.16 relative to dupilumab | B4 |
| 1.32 relative to dupilumab | B5 |
| 0.66 relative to dupilumab | B6 |
| 1.08 relative to dupilumab | B7 |
| 1.02 relative to dupilumab | B8 |
| 1.21 relative to dupilumab | B9 |
| 1.22 relative to dupilumab | B10 |
| 1.09 relative to dupilumab | B11 |

Molecular target: T3, hIL-4Rα on cells
Experiment: cell-based or functional assay
Remark: another data set of the same source

| Relative Inhibition of IL-4 induced pSTAT6 IC50 | Relative Inhibition of IL-13 induced pSTAT6 IC50 | Binder |
| --- | --- | --- |
| 0.415 relative to dupilumab | 0.824 relative to dupilumab | B1 |
| 1.68 relative to dupilumab | 4.76 relative to dupilumab | B2 |
| 1.09 relative to dupilumab | 0.781 relative to dupilumab | B3 |
| 0.633 relative to dupilumab | 1.89 relative to dupilumab | B4 |
| 0.81 relative to dupilumab | 2.78 relative to dupilumab | B5 |
| 0.285 relative to dupilumab | 0.468 relative to dupilumab | B6 |
| 1.25 relative to dupilumab | 4.61 relative to dupilumab | B7 |
| 0.633 relative to dupilumab | 2.29 relative to dupilumab | B8 |
| 1.18 relative to dupilumab | 3.76 relative to dupilumab | B9 |
| 1.04 relative to dupilumab | 3.6 relative to dupilumab | B10 |
| 1.18 relative to dupilumab | 1.97 relative to dupilumab | B11 |

Molecular target: T3, hIL-4Rα on cells
Experiment: cell-based or functional assay
Remark: another data set of the same source

| Relative Inhibition of IL-4 induced TARC IC50 | Relative Inhibition of IL-13 induced TARC IC50 | Binder |
| --- | --- | --- |
| 0.507 relative to dupilumab | 1.01 relative to dupilumab | B1 |
| 4.36 relative to dupilumab | 2.4 relative to dupilumab | B2 |
| 0.68 relative to dupilumab | 0.592 relative to dupilumab | B3 |
| 1.6 relative to dupilumab | 4.7 relative to dupilumab | B4 |
| 2.02 relative to dupilumab | 1.62 relative to dupilumab | B5 |
| 0.453 relative to dupilumab | 0.35 relative to dupilumab | B6 |
| 3.09 relative to dupilumab | 14.5 relative to dupilumab | B7 |
| 1.56 relative to dupilumab | 2.3 relative to dupilumab | B8 |
| 2.53 relative to dupilumab | 5.72 relative to dupilumab | B9 |
| 2.49 relative to dupilumab | 4.66 relative to dupilumab | B10 |
| 1.53 relative to dupilumab | 1.35 relative to dupilumab | B11 |

Molecular target: T3, hIL-4Rα on cells
Experiment: FACS on HEK293 cells, competitor biotin-hIL-13;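 also: stably transduced cells co-expressing both receptor chains, stained cold, with cell-bound signal read as mean fluorescence intensity by flow cytometry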
Description: Briefly, HEK293 previously transduced to stably express both hIL-13Rα and hIL-4Rα were cultured and harvested. Cells were seeded at 200,000 cells in 100 uL per well. Cells were washed and the supernatant discarded. […] The cells were stained in this mixture at 4° C. for 1 hour. […] Cells were incubated 4° C. for 1 hour, protected from light. Cells were then washed and the MFI of cells in each well were recorded by FACS using a BD FACSCanto II. Subsequent data were analyzed using GraphPad Prism.

| Relative Blockade of IL-13 Binding IC50 | Binder |
| --- | --- |
| 0.882 relative to dupilumab | B1 |
| 1.14 relative to dupilumab | B2 |
| 0.958 relative to dupilumab | B3 |
| 1.19 relative to dupilumab | B4 |
| 1.34 relative to dupilumab | B5 |
| 0.876 relative to dupilumab | B6 |
| 1.01 relative to dupilumab | B7 |
| 1.13 relative to dupilumab | B8 |
| 1.23 relative to dupilumab | B9 |
| 1.02 relative to dupilumab | B10 |
| 1.15 relative to dupilumab | B11 |

Molecular target: T2, human IL-4Rα
Experiment: KinExA
Description: Binding affinity (KD) of exemplary antibodies to human IL-4Rα was determined using the Kinetic Exclusion Assay (KinExA). Briefly, antibody and recombinant human IL-4Rα were equilibrated in solution. […] Samples were incubated for a time period ranging from 3.5 hours to 340 hours, to fully reach equilibrium. Once samples reached equilibrium, azlactone beads previously coated with recombinant human IL-4Rα were used to capture any free antibody from the equilibrated solution. […] The KinExA 4000 instrument was used to capture fluorescent signal and convert to a voltage signal that is directly proportional to the amount of free antibody in all the equilibrated samples, allowing for the determination of the apparent affinity of the antibody.

| KD Relative to Dupilumab | Kd | Binder |
| --- | --- | --- |
| 0.267 | 0.299 pM | B1 |
| 0.01 | 0.0109 pM | B6 |
